Laboratory results published in patent publication US20240133885A1 (UNIVERSITY OF SOUTHERN CALIFORNIA, published 2024).
Where two headings read alike, the source gives them in different places.

Legend:
[1] = target: T1, Luc90-(vL-vH)-MYC-CD28z-T2A-Pac; assay: NLuc assay, supernatant on 293FT cells transfected with the CAR
T1 construct: Entry = whole construct incl; T2A-Pac; also called SLAMF7/CS1-specific CAR; 031915-F03

[2] = target: T2, CD19 (human, UniProt P15391 20-556); assay: Luc assay, supernatant on HL60 cells (stated CD19-, CD20-, CD33+)
T2 construct: whole, on cells; Endogenous antigen of the cell lines tested (RAJI stated CD19 positive); also called human CD19

[3] = target: T2, CD19; assay: Luc assay, supernatant on Raji cells (stated CD19+, CD20+, CD33-)
[4] = target: T3, CD324-hSC10-17-(vL-vH)-MYC-BBz-T2A-PAC; assay: NLuc assay, supernatant on 293FT cells transfected with the CAR
T3 construct: Entry = whole construct incl; T2A-PAC; also called CDH1/CD324-specific CAR; 052516-A07

[5] = target: T4, CD324-SC10-6-(vL-vH)-MYC-BBz-T2A-PAC; assay: as above
T4 construct: Entry = whole construct incl; T2A-PAC; also called CDH1/CD324-specific CAR; 052516-B07

[6] = target: T2, CD19; assay: Luc assay, supernatant on BV173 cells
[7] = target: T2, CD19; assay: Luc assay, supernatant on JSC-1 cells
[8] = target: T2, CD19; assay: Luc assay, supernatant on MM1S cells
[9] = target: T2, CD19; assay: Luc assay, supernatant on BC1 cells
[10] = target: T2, CD19; assay: Luc assay, supernatant on BCBL-1 cells
[11] = target: T2, CD19; assay: Luc assay, supernatant on RAJI cells
[12] = target: T2, CD19; assay: Luc assay, supernatant on BC-3 cells
[13] = target: T2, CD19; assay: Luc assay, supernatant on U266 cells
[14] = target: T5, J6MO-(vL-vH)-MYC-28z-T2A-Pac; assay: NLuc assay, supernatant on NK92MI cells expressing the CAR
T5 construct: CAR on NK92MI cells; Entry = whole construct incl; T2A-Pac; also called BCMA-specific CAR; 031915-G02

[15] = target: T3, CD324-hSC10-17-(vL-vH)-MYC-BBz-T2A-PAC; assay: NLuc assay, supernatant on transfected 293FT cells
[16] = target: T6, CD200R-huDx182-(vL-vH)-Myc-BBz-T2A-PAC; assay: NLuc assay, supernatant on transfected 293FT cells
T6 construct: Entry = whole construct incl; T2A-PAC; also called CD200R-specific CAR

[17] = target: T4, CD324-SC10-6-(vL-vH)-MYC-BBz-T2A-PAC; assay: NLuc assay, supernatant on transfected 293FT cells
[18] = target: T1, Luc90-(vL-vH)-MYC-CD28z-T2A-Pac; assay: NLuc assay, supernatant on transfected 293FT cells
[19] = target: T7, FMC63-(vL-vH)-Myc-BBz-T2A-Pac; assay: NLuc assay, supernatant on 293FT cells transfected with the CAR
T7 construct: Entry = whole construct incl; T2A-Pac; also called FMC63-CAR; CD19 (FMC63)-CAR

[20] = target: T7, FMC63-(vL-vH)-Myc-BBz-T2A-Pac; assay: as above; remark: listed apart in the source
[21] = target: T7, FMC63-(vL-vH)-Myc-BBz-T2A-Pac; assay: NLuc assay, supernatant on CAR T cells

B1: SLAMF7-CS1-ECD-GGSG-NLuc-4xFlag-2xStreptag-8xHis-T2A-Pac (receptor)
chain: not shown
notes: Entry = whole insert incl; T2A-Pac; also called 062816-A01
Mean Luc activity [1]: 100000

B2: CD8SP-hCD19-Bu12-(vL-vH)-GGSG-NLuc-AcV5 (scFv)
scFv: not shown
notes: Entry = whole insert incl. signal peptide; also called 021417-T05
Mean Luc activity [2]: 1610
Mean Luc activity [3]: 358000

B3: CDH1-ECD-GGSG-NLuc-4xFlag-2xStreptag-8xHis-T2A-Pac (receptor)
chain: not shown
notes: Entry = whole insert incl; T2A-Pac; also called 062816-G02
Mean Luc activity [4]: 2.02e+06
Mean Luc activity [5]: 2.9e+06

B4: CD8SP-CD19-4G7-(vL-vH)-GGSG-NLuc-4xFLAG-x2STREP-8xHis-T2A-PAC (scFv)
scFv: not shown
notes: Entry = whole insert incl. signal peptide and T2A-PAC; also called 062916-C08
Luc activity [6]: 121000
Luc activity [7]: 13300
Luc activity [8]: 10400
Mean Luc activity [9]: 52300
Luc activity [10]: 14000
Mean Luc activity [11]: 397000
Luc activity [12]: 6180
Luc activity [13]: 6540

B5: CD8SP-CD19-4G7-Mlu-GSG-NLuc-AcV5 (scFv)
scFv: not shown
notes: Entry = whole insert incl. signal peptide; also called 021417-Z04
Mean Luc activity [2]: 4320
Mean Luc activity [3]: 380000

B6: FLAG-CD19-ECD-GGSG-NLuc-AcV5 (receptor)
chain: not shown
notes: Entry = whole insert incl; CD19 signal peptide, FLAG tag, linker, NLuc, AcV5; also called CD19-GGSG-NLuc-AcV5
binding result [14]: no binding
binding result [15]: no binding
binding result [16]: no binding
binding result [17]: no binding
binding result [18]: no binding
Mean Luc activity [4]: 5190
Mean Luc activity [5]: 16400
Mean Luc activity [19]: 237000
Mean Luc activity [20]: 237000
Mean Luc activity [1]: 3830
fold NLuc value over uninfected or control CAR cells [21]: > 85 fold
